Assay results: publication PMC5653653

What was measured:
[1] = molecular target: long Homer proteins (Homer1b/c, Homer2, and Homer3, collectively referred to as Homer) (mouse (endogenous in hippocampal neurons))
[2] = molecular target: long Homer proteins (Homer1b/c, Homer2, and Homer3, collectively referred to as Homer) (mouse (endogenous in hippocampal neurons)); remark: listed apart in the source
[3] = molecular target: long Homer proteins (Homer1b/c, Homer2, and Homer3, collectively referred to as Homer) (mouse (endogenous in hippocampal neurons)); remark: listed apart in the source

EPSCs (NMDA) amplitude (% of baseline) after DHPG (mGluR-LTD) in WT slices treated with TAT-mGluR5ct; LTD abolished [1]: 101%
EPSCs (NMDA) amplitude (% of baseline) after DHPG (mGluR-LTD) in WT slices treated with the control peptide TAT-mGluR5mu; LTD not abolished [1]: 56.6%
EPSCs (NMDA) amplitude in CA1 pyramidal neurons of WT slices treated with TAT-mGluR5ct (5 µM, 4 h); lower than untreated WT [1]: 88.1 pA
EPSCs (NMDA) amplitude in CA1 pyramidal neurons of WT slices treated with the control peptide TAT-mGluR5mu (5 µM, 4 h); not lower than untreated WT [1]: 126 pA
NMDA/AMPA ratio in CA1 pyramidal neurons of WT slices treated with TAT-mGluR5ct; reduced [1]: 0.88
change of the mobile fraction of synaptic mGluR5 in WT neurons, TAT-mGluR5ct against TAT-mGluR5mu [2]: 12.6%
co-localized mGluR5/GluN1/Homer1-positive signals as percentage of synaptic GluN1 signal, WT neurons treated with TAT-mGluR5ct (5 µM, 1 h); increased [3]: 71.8%
co-localized mGluR5/GluN1/Homer1-positive signals as percentage of synaptic GluN1 signal, WT neurons treated with the control peptide TAT-mGluR5mu (5 µM, 1 h); no effect [3]: 61.2%
Substance: Metabotropic glutamate receptor subtype 5 (mGluR5) (from UniProt Q3UVX5 19-1203)
